According to FireProtDB (doi:10.1021/bi00102a015):

B1: Cytochrome c2, P00094 (parent)
chain: MKISLTAATVAALVLAAPAFAGDAAKGEKEFNKCKTCHSIIAPDGTEIVKGAKTGPNLYGVVGRTAGTYPEFKYKDSIVALGASGFAWTEEDIATYVKDPGAFLKEKLDDKKAKTGMAFKLAKGGEDVAAYLASVVK

Variants of: B1
Settings: Rhodobacter capsulatus (strain ATCC BAA-309 / NBRC 16581 / SB1003); pH 7.5; 25 °C; GdnHCl; CD; Tris-HCl 20 mM; NaCl 40 mM; structure 1C2R; whole UniProt chain shown

Variant	ddG of mutation (higher = less stable) [kcal/mol]	denaturant m value [kcal/mol/M]	denaturant midpoint (higher = more stable) [M]	unfolding free energy [kcal/mol]
MKISLTAATVAALVLAAPAFAGDAAKGEKEFNKCETCHSIIAPDGTEIVKGAETGPNLYGVVGRTAGTYPEFKYKDSIVALGASGFAWTEEDIATYVKDPGAFLKEKLDDKKAKTGMAFKLAKGGEDVAAYLASVVK	0.8	3	1.2	3.6
MKISLTAATVAALVLAAPAFAGDAAKGEKEFNDCKTCHSIIAPDGTEIVKGAKTGPNLYGVVGRTAGTYPEFKYKDSIVALGASGFAWTEEDIATYVKDPGAFLKEKLDDKKAKTGMAFKLAKGGEDVAAYLASVVK	1.1	2.8	1.2	3.3
MKISLTAATVAALVLAAPAFAGDAAKGEKEFNKCETCHSIIAPDGTEIVKGAKTGPNLYGVVGRTAGTYPEFKYKDSIVALGASGFAWTEEDIATYVKDPGAFLKEKLDDKKAKTGMAFKLAKGGEDVAAYLASVVK	0.9	2.8	1.2	3.5
MKISLTAATVAALVLAAPAFAGDAAKGEKEFNKCKTCHSIIAPDGTEIVKGAETGPNLYGVVGRTAGTYPEFKYKDSIVALGASGFAWTEEDIATYVKDPGAFLKEKLDDKKAKTGMAFKLAKGGEDVAAYLASVVK	-0.4	3	1.6	4.8
